From article PMC9352680, “A comprehensive thermodynamic model for RNA binding by the Saccharomyces cerevisiae Pumilio protein PUF4”
Positions count from the first letter of the chain named. In names and notes the source's numbering stands.

B1: Ia_S4_P5E.1_K5.1_C5.1_H5.1_[A4C]_A5.1_F5.1_T5.1 (ssRNA)
RNA: UUUGACAACUGAUCGUUCUUUCUUGUCUUAUUAUUCUUUCUCGAUCAGUUGUCUUU
B2: Ia_S4_P5E.1_K5.1_C5.1_H5.1_A5.1_[A7C]_F5.1_T5.1 (ssRNA)
RNA: B1 RNA with C27A, A30C
B3: Ia_S4_P5E.1_K5.1_C5.1_H5.1_A5.1_[T6C]_F5.1_T5.1 (ssRNA)
RNA: B1 RNA with C27A, U29C
B4: Ia_S4_P5E.1_K5.1_C5.1_H5.1_A5.1_[T6A]_F5.1_T5.1 (ssRNA)
RNA: B1 RNA with C27A, U29A
B5: Ia_S4_P5E.1_K5.1_C5.1_H5.1_A5.1_[T5C]_F5.1_T5.1 (ssRNA)
RNA: B1 RNA with C27A, U28C

target: T1, PUF4 RNA-binding domain (Saccharomyces cerevisiae, UniProt P25339 537-888); test: Mg; RNA-MaP; 20 mM Na-HEPES pH 7.4, 30 mM KOAc, 0.75 mM MgCl2, 0.1% Tween-20, 5% glycerol, 0.1 mg/mL BSA, 2 mM DTT; 25 C; 0.0125-409.6 nM protein; conditions: tags: N-His6-TEV cleaved; C-SNAP kept, Cy3B-labelled; label: tethered on chip by stalled RNA polymerase
T1 sequence: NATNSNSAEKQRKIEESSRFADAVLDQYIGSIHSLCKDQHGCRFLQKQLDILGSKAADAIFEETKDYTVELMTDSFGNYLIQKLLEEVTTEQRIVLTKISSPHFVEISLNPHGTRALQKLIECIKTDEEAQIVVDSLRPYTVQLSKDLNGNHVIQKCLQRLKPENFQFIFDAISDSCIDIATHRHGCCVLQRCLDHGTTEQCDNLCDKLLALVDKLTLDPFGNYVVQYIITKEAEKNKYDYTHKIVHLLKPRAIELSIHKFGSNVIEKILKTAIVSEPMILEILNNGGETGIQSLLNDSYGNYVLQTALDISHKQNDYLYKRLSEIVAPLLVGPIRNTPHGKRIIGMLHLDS

Binder	Kd [nM]
UCUCUUUGUACAUAUCUCUU (ssRNA) [Ic_S1_P3E.1_K3.1_C3.1_H3.1_A3.1_[T5C]_F3.1_T3.1]	5.88
UCUCUUUGUAAAGCUCUCUU (ssRNA) [Ic_S1_P3E.1_K3.1_C3.1_H3.1_A3.1_[T5A]_F3.1_[T7G]_[A8C]_T3.1]	1000
UCUCUUUGUACAACUCUCUU (ssRNA) [Ic_S1_P3E.1_K3.1_C3.1_H3.1_A3.1_[T5C]_F3.1_[T7A]_[A8C]_T3.1]	50.4
UCUCUUUGUAACAUUCUCUU (ssRNA) [Ic_S1_P3E.1_K3.1_C3.1_H3.1_A3.1_[T5A]_[A6C]_F3.1_[T7A]_[A8T]_T3.1]	15
UCUCUUUGUACAAGUCUCUU (ssRNA) [Ic_S1_P3E.1_K3.1_C3.1_H3.1_A3.1_[T5C]_F3.1_[T7A]_[A8G]_T3.1]	704
UCUCUUUGUACACUUCUCUU (ssRNA) [Ic_S1_P3E.1_K3.1_C3.1_H3.1_A3.1_[T5C]_F3.1_[T7C]_[A8T]_T3.1]	9.72
UCUCUUUGUAAUACUCUCUU (ssRNA) [Ic_S1_P3E.1_K3.1_C3.1_H3.1_A3.1_[T5A]_[A6T]_F3.1_[T7A]_[A8C]_T3.1]	560
UCUCUUUGUAAACUUCUCUU (ssRNA) [Ic_S1_P3E.1_K3.1_C3.1_H3.1_A3.1_[T5A]_F3.1_[T7C]_[A8T]_T3.1]	24
UCUCUUUGUAAGUUUCUCUU (ssRNA) [Ic_S1_P3E.1_K3.1_C3.1_H3.1_A3.1_[T5A]_[A6G]_F3.1_[A8T]_T3.1]	709
UCUCUUUGUAAAACUCUCUU (ssRNA) [Ic_S1_P3E.1_K3.1_C3.1_H3.1_A3.1_[T5A]_F3.1_[T7A]_[A8C]_T3.1]	369
UCUCUUUGUAAUAAUCUCUU (ssRNA) [Ic_S1_P3E.1_K3.1_C3.1_H3.1_A3.1_[T5A]_[A6T]_F3.1_[T7A]_T3.1]	146
UCUCUUUGUAAGCUUCUCUU (ssRNA) [Ic_S1_P3E.1_K3.1_C3.1_H3.1_A3.1_[T5A]_[A6G]_F3.1_[T7C]_[A8T]_T3.1]	653
UCUCUUUGUAAAAGUCUCUU (ssRNA) [Ic_S1_P3E.1_K3.1_C3.1_H3.1_A3.1_[T5A]_F3.1_[T7A]_[A8G]_T3.1]	822
UCUCUUUGUAAAGUUCUCUU (ssRNA) [Ic_S1_P3E.1_K3.1_C3.1_H3.1_A3.1_[T5A]_F3.1_[T7G]_[A8T]_T3.1]	135
UCUCUUUGUAAUAGUCUCUU (ssRNA) [Ic_S1_P3E.1_K3.1_C3.1_H3.1_A3.1_[T5A]_[A6T]_F3.1_[T7A]_[A8G]_T3.1]	645
UCUCUUUGUAACGUUCUCUU (ssRNA) [Ic_S1_P3E.1_K3.1_C3.1_H3.1_A3.1_[T5A]_[A6C]_F3.1_[T7G]_[A8T]_T3.1]	534
UCUCUUUGUAAUUGUCUCUU (ssRNA) [Ic_S1_P3E.1_K3.1_C3.1_H3.1_A3.1_[T5A]_[A6T]_F3.1_[A8G]_T3.1]	352
UCUCUUUGUAACAGUCUCUU (ssRNA) [Ic_S1_P3E.1_K3.1_C3.1_H3.1_A3.1_[T5A]_[A6C]_F3.1_[T7A]_[A8G]_T3.1]	491
UCUCUUUGUAAUGUUCUCUU (ssRNA) [Ic_S1_P3E.1_K3.1_C3.1_H3.1_A3.1_[T5A]_[A6T]_F3.1_[T7G]_[A8T]_T3.1]	329
UCUCUUUGUAACACUCUCUU (ssRNA) [Ic_S1_P3E.1_K3.1_C3.1_H3.1_A3.1_[T5A]_[A6C]_F3.1_[T7A]_[A8C]_T3.1]	531
UCUCUUUGUAACUCUCUCUU (ssRNA) [Ic_S1_P3E.1_K3.1_C3.1_H3.1_A3.1_[T5A]_[A6C]_F3.1_[A8C]_T3.1]	373
UCUCUUUGUAAUGGUCUCUU (ssRNA) [Ic_S1_P3E.1_K3.1_C3.1_H3.1_A3.1_[T5A]_[A6T]_F3.1_[T7G]_[A8G]_T3.1]	2030
UCUCUUUGUAAGUGUCUCUU (ssRNA) [Ic_S1_P3E.1_K3.1_C3.1_H3.1_A3.1_[T5A]_[A6G]_F3.1_[A8G]_T3.1]	1820
UCUCUUUGUAACCUUCUCUU (ssRNA) [Ic_S1_P3E.1_K3.1_C3.1_H3.1_A3.1_[T5A]_[A6C]_F3.1_[T7C]_[A8T]_T3.1]	81
UCUCUUUGUAAUCGUCUCUU (ssRNA) [Ic_S1_P3E.1_K3.1_C3.1_H3.1_A3.1_[T5A]_[A6T]_F3.1_[T7C]_[A8G]_T3.1]	867

Binder	Kd [nM]
UCUCUUUGUAACAAUCUCUU (ssRNA) [Ic_S1_P3E.1_K3.1_C3.1_H3.1_A3.1_[T5A]_[A6C]_F3.1_[T7A]_T3.1]	99.3
UCUCUUUGUAAUCAUCUCUU (ssRNA) [Ic_S1_P3E.1_K3.1_C3.1_H3.1_A3.1_[T5A]_[A6T]_F3.1_[T7C]_T3.1]	758
UCUCUUUGUAACGCUCUCUU (ssRNA) [Ic_S1_P3E.1_K3.1_C3.1_H3.1_A3.1_[T5A]_[A6C]_F3.1_[T7G]_[A8C]_T3.1]	996
UCUCUUUGUAACUUUCUCUU (ssRNA) [Ic_S1_P3E.1_K3.1_C3.1_H3.1_A3.1_[T5A]_[A6C]_F3.1_[A8T]_T3.1]	57.1
UCUCUUUGUAACCCUCUCUU (ssRNA) [Ic_S1_P3E.1_K3.1_C3.1_H3.1_A3.1_[T5A]_[A6C]_F3.1_[T7C]_[A8C]_T3.1]	975
UCUCUUUGUAACUGUCUCUU (ssRNA) [Ic_S1_P3E.1_K3.1_C3.1_H3.1_A3.1_[T5A]_[A6C]_F3.1_[A8G]_T3.1]	389
UCUCUUUGUAAUUUUCUCUU (ssRNA) [Ic_S1_P3E.1_K3.1_C3.1_H3.1_A3.1_[T5A]_[A6T]_F3.1_[A8T]_T3.1]	34
UCUCUUUGUAACCAUCUCUU (ssRNA) [Ic_S1_P3E.1_K3.1_C3.1_H3.1_A3.1_[T5A]_[A6C]_F3.1_[T7C]_T3.1]	959
UCUCUUUGUAUGGCUCUCUU (ssRNA) [Ic_S1_P3E.1_K3.1_C3.1_H3.1_A3.1_[A6G]_F3.1_[T7G]_[A8C]_T3.1]	1730
UCUCUUUGUAAACCUCUCUU (ssRNA) [Ic_S1_P3E.1_K3.1_C3.1_H3.1_A3.1_[T5A]_F3.1_[T7C]_[A8C]_T3.1]	568
UCUCUUUGUAACGGUCUCUU (ssRNA) [Ic_S1_P3E.1_K3.1_C3.1_H3.1_A3.1_[T5A]_[A6C]_F3.1_[T7G]_[A8G]_T3.1]	> 2300
UCUCUUUGUAAGCCUCUCUU (ssRNA) [Ic_S1_P3E.1_K3.1_C3.1_H3.1_A3.1_[T5A]_[A6G]_F3.1_[T7C]_[A8C]_T3.1]	1550
B1	13.1
B2	5.51
B3	2.73
B4	4.42
B5	2.21
UCUCUUUGUAAUUCUCUCUU (ssRNA) [Ic_S1_P3E.1_K3.1_C3.1_H3.1_A3.1_[T5A]_[A6T]_F3.1_[A8C]_T3.1]	477
UCUCUUUGUAAUCCUCUCUU (ssRNA) [Ic_S1_P3E.1_K3.1_C3.1_H3.1_A3.1_[T5A]_[A6T]_F3.1_[T7C]_[A8C]_T3.1]	812
UCUCUUUGUACACCUCUCUU (ssRNA) [Ic_S1_P3E.1_K3.1_C3.1_H3.1_A3.1_[T5C]_F3.1_[T7C]_[A8C]_T3.1]	41.8
UCUCUUUGUAAUCUUCUCUU (ssRNA) [Ic_S1_P3E.1_K3.1_C3.1_H3.1_A3.1_[T5A]_[A6T]_F3.1_[T7C]_[A8T]_T3.1]	70.2
UCUCUUUGUAAGCAUCUCUU (ssRNA) [Ic_S1_P3E.1_K3.1_C3.1_H3.1_A3.1_[T5A]_[A6G]_F3.1_[T7C]_T3.1]	> 2300
UCUCUUUGUACAAUUCUCUU (ssRNA) [Ic_S1_P3E.1_K3.1_C3.1_H3.1_A3.1_[T5C]_F3.1_[T7A]_[A8T]_T3.1]	11.1
UCUCUUUGUAAGCGUCUCUU (ssRNA) [Ic_S1_P3E.1_K3.1_C3.1_H3.1_A3.1_[T5A]_[A6G]_F3.1_[T7C]_[A8G]_T3.1]	1910
